What was measured:
[1] = molecular target: T1, human CD40 on the cell surface (CD40 transfected HEK293 cells, Ramos human B cells, other CD40-bearing cells) (human, UniProt P25942 21-277); test: flow cytometry, Alexa 647 conjugate on CD40 transfected 293 cells
T1 construct: the transfected construct is not described further

[2] = molecular target: T2, CD40-Fc protein (Sino-Biological), biotinylated (Homo sapiens (Human), UniProt P25942 21-193, biotinylated in the lab (sites not given) when used for capture); test: Octet (BLI); G4P-PDL1 held on captured hPDL1-His, then CD40-Fc 100nM
T2 construct: Bought; also called CD40-biotin; not shown: Fc of the purchased CD40-Fc
T2 sequence (P25942 21-193): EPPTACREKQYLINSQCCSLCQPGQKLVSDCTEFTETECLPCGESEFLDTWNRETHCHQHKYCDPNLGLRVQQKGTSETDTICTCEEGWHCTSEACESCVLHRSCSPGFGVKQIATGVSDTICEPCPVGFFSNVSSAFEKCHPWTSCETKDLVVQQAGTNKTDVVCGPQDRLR

T1 sequence (P25942 21-277 limits assumed): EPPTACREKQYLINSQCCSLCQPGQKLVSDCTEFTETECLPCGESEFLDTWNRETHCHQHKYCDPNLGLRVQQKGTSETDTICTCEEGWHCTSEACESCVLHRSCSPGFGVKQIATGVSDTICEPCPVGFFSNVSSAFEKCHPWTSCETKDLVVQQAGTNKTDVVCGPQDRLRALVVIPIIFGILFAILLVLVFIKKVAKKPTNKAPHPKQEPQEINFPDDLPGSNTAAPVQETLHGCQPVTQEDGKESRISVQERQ

binding result [1]: no binding (tested: about 4x10^4 pM)
binding result [2]: no binding (tested: 100 nM CD40-Fc)
B1: anti-PDL1 (MEDI4736) in human IgG4 isotype (antibody, V domains shown)
VH: EVQLVESGGGLVQPGGSLRLSCAASGFTFSRYWMSWVRQAPGKGLEWVANIKQDGSEKYYVDSVKGRFTISRDNAKNSLYLQMNSLRAEDTAVYYCAREGGWFGELAFDYWGQGTLVTVSS
VL: EIVLTQSPGTLSLSPGERATLSCRASQRVSSSYLAWYQQKPGQAPRLLIYDASSRATGIPDRFSGSGSGTDFTLTISRLEPEDFAVYYCQQYGSLPWTFGQGTKVEIKR
notes: Human IgG4 (228P) format of MEDI4736; also called MEDI4736 IgG4; anti-PD-L1 (MED4736)

Reference: patent US20190241659A1 (AstraZeneca / MedImmune, published 2019)
